Results: patent US20260152553A1

Molecular target: CD19/CD20 bispecific CAR (Leu16 scFv-(G4S)4-FMC63 scFv-IgG4 hinge-CD28 TM-4-1BB-CD3 zeta)
Experiment: flow cytometry, staining of T cells (donor 1917) transduced with CD19/20 CAR lentiviral vector

CD19/CD20 bispecific CAR (Leu16 scFv-(G4S)4-FMC63 scFv-IgG4 hinge-CD28 TM-4-1BB-CD3 zeta), sequence (chain, as listed by the source): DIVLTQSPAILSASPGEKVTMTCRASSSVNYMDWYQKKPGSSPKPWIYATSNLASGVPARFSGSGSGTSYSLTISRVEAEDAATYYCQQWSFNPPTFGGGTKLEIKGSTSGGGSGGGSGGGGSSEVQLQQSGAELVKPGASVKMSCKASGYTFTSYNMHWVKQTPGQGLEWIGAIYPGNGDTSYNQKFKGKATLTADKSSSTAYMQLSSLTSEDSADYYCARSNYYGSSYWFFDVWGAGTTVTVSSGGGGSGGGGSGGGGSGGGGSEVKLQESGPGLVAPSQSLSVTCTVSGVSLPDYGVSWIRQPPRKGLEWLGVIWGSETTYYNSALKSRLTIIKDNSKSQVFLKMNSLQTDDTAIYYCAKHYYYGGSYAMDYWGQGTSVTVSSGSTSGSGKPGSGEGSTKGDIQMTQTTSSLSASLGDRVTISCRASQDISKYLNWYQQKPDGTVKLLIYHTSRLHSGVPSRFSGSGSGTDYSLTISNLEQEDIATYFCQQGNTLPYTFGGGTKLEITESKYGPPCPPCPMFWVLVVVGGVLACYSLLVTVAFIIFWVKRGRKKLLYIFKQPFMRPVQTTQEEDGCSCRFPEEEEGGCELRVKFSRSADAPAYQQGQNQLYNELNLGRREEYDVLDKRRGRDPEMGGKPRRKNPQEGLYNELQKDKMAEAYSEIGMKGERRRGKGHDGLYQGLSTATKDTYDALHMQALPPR

Substance: Byotinilated anti-FMC63 (Acros) (antibody)
- % Positive Cells: 59.6%
